experiment: soluble on expression in E. coli; label from the status in PepcDB or PDB records

Soluble on expression in E. coli, not soluble:
MGSDKIHHHHHHAADVSFPDAVRKVAVINNMPVLKTKDNHEILSSELEGDGKVASEALAENIANVNYFDQVIICDSVFRAQDKVPRVNVILTKEEVRKLSEDLGVDMILSFDRIHIQTKPGVLFYPDFPMPIDAVDGIISPIVRVYIPNRDKPLFVVAKQDTISWEIEPALSDRKIVKEASEYAASIPVEHLLPHWDEVARFYYDGGNIEMRDAGVYLRENNWDEAYSQWKIAYEKRKGQQKMKAAFNIALYYEIKDNVEQAKEWLGKAKKLVKSGSRDEQLIAFYSLELEKRGSKLSQLRIQMKRFDDNF, MGSDKIHHHHHHACEEEGLGNEETPFAPYVLSLGINSNGTTTYYVVTAPELMSGTINAVAKGIEQNGYRDYEQAGQTVFSIGGLGLTSATGIVRDANGYLTERGDFVFNSSLNAFTQMDGQNMIGLELPANKESGDQMTLYTVNISDVSITSQVKAPVFPLNQLEWPSITGMCYSEGNVYVTYFPMNPSTFETLYTDTTFVAVYSYPDMQFKTLMKDTRTGPAGSWNAFNGIFKVESGDMYIMSNSAIANGFSQSTKNAAFLRIPKGETHFDDYYFDFETVSGGLKPAHIKYIGNGLVFAEVSTISPQTSADRWGDKSLKCCIIDLNNKTVRDIKEIPVHNGDGGRRFAALVDGGYVYRPVTASEGTYIYQVDPQAATAVRGAKVSTTFVGGFFRLD, MGSDKIHHHHHHACRQVATESRVQPASFEVGSSMIADTFFLDSLSLFMPETNEEALINNIDRVYESNGRYFILDKRMKQVLCYTLSGKHLFTIHAVGNGKGEYVDLFDIAIDEAENKLLLLTYPSQILYYDLEGTYLSSYPLDDTYQSFAVDKGFIYLRNDTYANGVVSDYSLIVINKETGKQTSLLEPLYETAPFCSSGNYQITNTASVLFTRKFDNHIYRITGESIEPLYMVDWKDKAFPESDKQRQFQCNDLNQLCYQGKYVYTMTDLCDTPSYLLFRTNQPGMCLLSKATSTVNNYQVIINTDYQLPLPNYMSVEGKQSRIFFIYSSEVLCEQKKLSAEEDINEKMSSLLGQIKEGDNPVIFTYHVK, MGSDKIHHHHHHADDDTPVVTLGTSLTDSQRNGTLKTLTAPLNGGNYQTITVTGSDLVKYLNPSGDNFTTSSGVWSSAMIQKTSSGSGINVKILDYNGKNNITTITANQYKNAALTAGITDANIYVTSAVPIDGSGALAGVYAAYAKNGNALNQKQVNAAQDEMNTLSGITQDNKNKEGYSDAQLNNAVAGAKSEMAKQGQNISDSQIRDIVNNQININHLGNTINNNQKNQIVNLLIEIRDSGALKNGSFKSQASKLSSQIQNGAKNIFNKFNTQENRSWLQQLWDNVVNFFSHIFG, MGSDKIHHHHHHAEDYMETDKGHDTLTLTVNQQEIVLNEKNHTQEALTLSWTTGTNYGSGNRISYTLEIAKAGTDFARAYSVDLGTGTYQWTKKTEELNQFLNTQLGVGYAEKVSLEARITATVAGMEEKEQRATVALDVTTYQPVTPTLYLIGEAAPNGWSADQATPMERTDNGQFTWTGKLNTGVFKFITTLGEFLPSYNRDAAAGEELRLIYRTSGDEPDEPFTVSKEATYIVKVDLLDLTMTMTETENIGWRFEEFYIVGSFTGDNGWGFEALSKDAVQMNLFHYGAVIPWKADGDFKFTSVTDFGQSDAFFHPTEGNAPYTSTSVVLGGEDNKWQMKESECGKAYKVLFLTAKGKEKMLMRPFTPYEGLYLVGDATPNGWSIDNATPMAKSADSPYIFTWSGTLNTGEMKISCDKQSDWNGDWLMADKSGKAPTGEVETALFTSKTDAELKNMYPDTDLGSLDNKWNIQEAGSYRITIDQLKETISIVKQ, MGSDKIHHHHHHAKESEQKVTIDSAKHEKHTKDKEENNSANTVFFDKINDLLVASVKEFEGTVGISYLDLETGEQRSVNGQHEFYTASTIKVPLTMLVADTVASGQKKWTDLIPYNAEEDYEEGTGIIAYNIQPEYPLKTLQEYAITYSDNIAKNMLYDTLGGDAKAKREMYQRYLHKTPSIEEPQFSSEDALVILQKLYTEKATKPDYQAIYDSMKQSVFHERMETPTTQGKVAHKIGSYDEFIHDMGILETPHPFALAIFTKGPDNAKSAAFIASVTDKLWQLQVSEYPNQ, MGSDKIHHHHHHALLGTTGLLHAPTADMQRDKTFLFGGNYLNTHPLSTHFRSSEVGYTFNYYINITIFPWLEVSYICTLVHADHGSTYFPEQSWGKFTNQDRAFSARLRLWKEGWWKEWTPQIVLGLDDPTSHADHGGGELVSGNTSGSNNYATRYYLAVTKHLDVQNIGEWGIHAAFVYGNAKGIEHYKRPSFGTNFRFQLLGDQPLIKVVNNLNLMAEYDARTVNIGAHYQLWKDHINLIAELNNGKYFSGGIYFKIHLK, MGSDKIHHHHHHAQNNADDKYEILSLTDMFSLFKDSKNSVPQDYDEIYVPGYFYEPSFMYPSPLKKEFCCVAQWRIPNRNCKYLFLEDIFPQNKDSLKQASLELQKIKEKYGMRESAMYQDVPAGYNGIIAKWFTGRLFVLHCPRKLFNTVVSKKASLISIHKGRISDEKQITPDEGKFESSCFPQKGGMILIREDGCWYDDIKRNIDFLISPLINENFPTEFSKHVGREYSFLLEVVPKTGQIIPHLLLPKTLSTDEKMIVSYLEKQIRKFPENSFGPLITIDKKMLYGRYLKFIVKDEKFKIEDYLEY, MGSDKIHHHHHHAQQKVEILPFGNMDQWVTREIKESGIIGGNTKKVYAIGPTETIVGAKPYANKGGSPWGTSNVMARVSGITKTNTSVFPETRGDGFCARLDTRMESVKVLGIVDITVLAAGSMFLGTVHEPIKSTKNPNKMLQMGIPFTDRPSAIQFDYKVKMSDRENRIRATGFSKITDVPGKDFPAVILLLQKRWEDAKGNVYAKRIGTMVNYYYHSTDWKNGSKYDIMYGDITKDPAYKAHMMRLQASEYFTVNSKGESVPIHEVAWGEADDVPTHMILQFTSSHGGAYIGSPGNSLYIDNVKLIY, MGSDKIHHHHHHAQTYQQLSEKAIEYIEMDSLSKAEELLLQALKLEPKNAKNAMLFSNLGLVQRRLGEYDKALESYSFALNFAPLAVPILLDRAAINLEMGNTDRAYTDYCQVLDEDKQNKEALLMRAYIYVLRRDYPAARIDYNRLLEIDPQSYSGRLGLATLEQKEGKFKEALEILNKMITATPEDATLYIARADVEREMKHEDLALVDLEEAIRLNPSSADAYLLRGNIYLTQKKKALAKMDFEKAISLGIPPADLHEQLKQCK, MGSDKIHHHHHHCDDFLDSFPQDTVTNENFWKSKEDADKVLVDIYASLLPKDAIFFDEAMSDNAYLVWDWWGGAQQVANGSYTTSGEIPTNRWNGSYEVIRKCWFLLEGIEKIEDISEQDKNKIIGETYFMLAYNYYVLTSYFGDVPLVTKTLAIPESKQLVRTPKAEVVDYAINKLKEAAVMLEGLSQEKGRVTADACRFLIARMYLYNGDYSNVLETVKLLEGKYQLYREGDTPYEDLFSGVAENSCEVILSVVCDKRVGEIYTSHGGNGIMLLKGITGEDPYRGVTPSGSLVDAYPMADGRLIHEAGSSYDPKKPYEGRDPRFYQSIVYPTGQIKYLDVETGTVKERLYDPEDPTTVPEHQYNYSQPSATGYMWNKYIDYSVYAMNSVWDCTNDIIVFRYADVLLMKAEALLQTKGESAKEEVCNLIDQLRDRCSCGRVHRENYNSKDELMELLKNERRIELANEGLRYMDLIRWKDAEKNTIVTGVGLTGQMYGAYMRKDGVGKDDKTVDVDNTPRRYIETRYFNASKGYLFPIPQKERDLNPNLTQNPNW, MGSDKIHHHHHHCDLERYPLTDLSEETFWNSESNAELALTSLYRGSLTDGVEYNPSDWWSYHGMIMMEHLSDNAFDRRGENNPFFKISSGNLTADNAFIKRYWETSYKRIGYCNRFLVGIQNSSESEKKTRMIAEARFLRATQYFYLASYFKNVPLVENVLTGEEANNVTKTSQADILKWCVTEFTAAAADLPRFSAIPAGEAGRACKQAALAFLGRTCMLQKDWKSGAKAFHDIMELGDNAINANYQELFYPSTGTSNKENIFYIQYLENYLGTGLPQHALSAKDGGWSLVNPAADLYESYEFKDGTPFSYDDPRYDPSNLGKDRDPRLDYTIYYNGAIFMGTEYKMSPDYSAAKKEKLDYTSEASRTGFMMRKYFEESTPINDVQSANGLTPVIRYAEVLLGYLECLVEDNQTITQGILDETINAVRGRASVNMPPVTEVTPAKLREIVRHERRIELAMEGIRYWDIMRWGIAHEVLSQKIWGAPYPGSTQYATTTKEVDPTGNYRWYVGKRAFRNPTDYTWPIPQSEQNINPNLRD

— the DeepSol protein solubility set
